Test results from publication PMC4865371, “ESCRT-III activation by parallel action of ESCRT-I/II and ESCRT-0/Bro1 during MVB biogenesis” (eLife, 2016).

Biological target: the molecule itself
Assay: negative stain transmission electron microscopy; purified recombinant Snf7 protein alone; protofilament assembly looked for

Protein | binding result
Snf7^Q90L (natural protein, Saccharomyces cerevisiae, UniProt P39929 1-240, looked up, Snf7/Vps32, Saccharomyces cerevisiae, with the point mutation Q90L found in the vps20Δ suppressor screen; source: recombinant, purified as described (Buchkovich et al., 2013; Henne et al., 2012; Tang et al., 2015)) MWSSLFGWTSSNAKNKESPTKAIVRLREHINLLSKKQSHLRTQITNQENEARIFLTKGNKVMAKNALKKKKTIEQLLSKVEGTMESMEQLLFSIESANLNLETMRAMQEGAKAMKTIHSGLDIDKVDETMDEIREQVELGDEISDAISRPLITGANEVDEDELDEELDMLAQENANQETSKIVNNNVNAAPISENKVSLPSVPSNKIKQSENSVKDGEEEEDEEDEDEKALRELQAEMGL | binds
Snf7^1-225 (α6 truncated Snf7) (domain or fragment, Saccharomyces cerevisiae, UniProt P39929 1-225, looked up, Snf7/Vps32, Saccharomyces cerevisiae, residues 1-225, lacks the C-terminal α6 helix; source: recombinant, purified as described (Buchkovich et al., 2013; Henne et al., 2012; Tang et al., 2015)) MWSSLFGWTSSNAKNKESPTKAIVRLREHINLLSKKQSHLRTQITNQENEARIFLTKGNKVMAKNALKKKKTIEQLLSKVEGTMESMEQQLFSIESANLNLETMRAMQEGAKAMKTIHSGLDIDKVDETMDEIREQVELGDEISDAISRPLITGANEVDEDELDEELDMLAQENANQETSKIVNNNVNAAPISENKVSLPSVPSNKIKQSENSVKDGEEEEDEED | binds
